Data taken from PMC8040517 (The Journal of Experimental Medicine, 2021).

How the values were obtained:
Experiment in all cases: crystal structure
Settings in all cases: both partners purified
[1] = target: TBEV^FE EDIII-His-Avitag (envelope domain III of tick-borne encephalitis virus, Far Eastern subtype, strain … (Tick-borne encephalitis virus Far …, UniProt P07720, strain))
[2] = target: TBEV^Si EDIII (envelope domain III of tick-borne encephalitis virus, Siberian subtype, strain Vasilchenko), … (Tick-borne encephalitis virus Siberian …, UniProt Q9WBS4, strain)
[3] = target: TBEV^WE EDIII-His-Avitag (envelope domain III of tick-borne encephalitis virus, Western European subtype, … (Tick-borne encephalitis virus Western …, UniProt P14336))

Measured: binding result

B1: T025 Fab (antigen-binding fragment of human antibody T025, IGVH3–30/IGVK3–15) (Fab, V domains shown)
VH: QVQLVESGGGVVQPGRSLRLSCAASGFTFSNYGMHWVRQAPGKGLDWVAVISYDAISKSYADSVEGRFTISRDNSKNTLYLQMNSLRAEDSAVYYCAKSPTAIDPPFDYWGQGTLVTVSS
VL: EIVMTQSPATLSVSPGERATLSCWASQSVSSNLAWYQQKPGQAPRLLIYGASTRATGIPARFSASGSGTEFTLTISSLQSEDFAVYYCQQYNNWPPRFGQGTKVEIK
notes: not shown: 6XHis, C-terminal, kept
binds: all assays above
